The record followed here is IntAct's records for PubMed 16648636.

Sequences and labels used below:
B1: Monothiol glutaredoxin-3 (Saccharomyces cerevisiae), Q03835 (parent)
chain: MPVIEINDQEQFTYLTTTAAGDKLIVLYFHTSWAEPCKALKQVFEAISNEPSNSNVSFLSIDADENSEISELFEISAVPYFIIIHKGTILKELSGADPKEYVSLLEDCKNSVNSGSSQTHTMENANVNEGSHNDEDDDDEEEEEETEEQINARLTKLVNAAPVMLFMKGSPSEPKCGFSRQLVGILREHQVRFGFFDILRDESVRQNLKKFSEWPTFPQLYINGEFQGGLDIIKESLEEDPDFLQHALQS
partner: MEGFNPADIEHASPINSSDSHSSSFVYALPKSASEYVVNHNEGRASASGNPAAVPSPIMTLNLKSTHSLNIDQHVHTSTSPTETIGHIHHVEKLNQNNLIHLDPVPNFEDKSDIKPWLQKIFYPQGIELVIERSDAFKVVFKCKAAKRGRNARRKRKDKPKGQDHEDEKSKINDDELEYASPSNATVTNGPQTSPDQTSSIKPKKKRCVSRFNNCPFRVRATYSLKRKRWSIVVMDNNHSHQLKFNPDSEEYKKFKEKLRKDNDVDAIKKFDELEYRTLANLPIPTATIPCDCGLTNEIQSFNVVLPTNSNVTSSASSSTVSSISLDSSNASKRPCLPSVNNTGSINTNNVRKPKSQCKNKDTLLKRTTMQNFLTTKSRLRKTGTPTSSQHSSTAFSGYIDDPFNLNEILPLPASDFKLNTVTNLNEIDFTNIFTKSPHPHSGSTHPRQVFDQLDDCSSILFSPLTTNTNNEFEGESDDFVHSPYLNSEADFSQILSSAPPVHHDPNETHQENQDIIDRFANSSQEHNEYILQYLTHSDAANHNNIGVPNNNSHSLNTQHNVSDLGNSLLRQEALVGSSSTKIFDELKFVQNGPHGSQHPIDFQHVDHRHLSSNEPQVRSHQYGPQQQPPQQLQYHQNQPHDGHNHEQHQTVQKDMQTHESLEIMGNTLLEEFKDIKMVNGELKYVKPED
B2: Monothiol glutaredoxin-4 (Saccharomyces cerevisiae), P32642 (parent)
chain: MTVVEIKSQDQFTQLTTTNAANKLIVLYFKAQWADPCKTMSQVLEAVSEKVRQEDVRFLSIDADEHPEISDLFEIAAVPYFVFIQNGTIVKEISAADPKEFVKSLEILSNASASLANNAKGPKSTSDEESSGSSDDEEDETEEEINARLVKLVQAAPVMLFMKGSPSEPKCGFSRQLVGILREHQIRFGFFDILRDENVRQSLKKFSDWPTFPQLYINGEFQGGLDIIKESIEEDPEYFQHALQ
partner: B1 partner

The first assay covers variants of B1. Conditions: with aft1_yeast AFT1, P22149.
Take MPVIEINDQEQFTYLTTTAAGDKLIVLYFHTSWAEPCKALKQVFEAISNEPSNSNVSFLSIDADENSEISELFEISAVPYFIIIHKGTILKELSGADPKEYVSLLEDCKNSVNSGSSQTHTMENANVNEGSHNDEDDDDEEEEEETEEQINARLTKLVNAAPVMLFMKGSPSEPKSGFSRQLVGILREHQVRFGFFDILRDESVRQNLKKFSEWPTFPQLYINGEFQGGLDIIKESLEEDPDFLQHALQS [C176S]: the “effect of a mutation on the interaction” value is listed as “disrupting interaction”.

The variants in the next assay derive from B2. As to conditions: with aft1_yeast AFT1, P22149.
As for MTVVEIKSQDQFTQLTTTNAANKLIVLYFKAQWADPCKTMSQVLEAVSEKVRQEDVRFLSIDADEHPEISDLFEIAAVPYFVFIQNGTIVKEISAADPKEFVKSLEILSNASASLANNAKGPKSTSDEESSGSSDDEEDETEEEINARLVKLVQAAPVMLFMKGSPSEPKSGFSRQLVGILREHQIRFGFFDILRDENVRQSLKKFSDWPTFPQLYINGEFQGGLDIIKESIEEDPEYFQHALQ [C171S], the “effect of a mutation on the interaction” value is reported as “disrupting interaction”.
